From US10428327B2, “Compositions and methods for enhancing homologous recombination” (LIFE TECHNOLOGIES CORPORATION, priority 2016, dated 2019)
Oligonucleotides are written 5' to 3', each unit as a sugar letter and its base; * is a phosphorothioate linkage, no mark a phosphodiester; rarer units and linkages stand in square brackets, end groups in braces. Plain capitals give the bases only. d = 2'-deoxy (DNA)

B1: 50-30 NP: asymmetric non-PAM strand ssDNA donor, EmGFP, SEQ ID 66 (nucleic acid)
DNA: CGGGGTAGCGGGCGAAGCACTGCACGCCGTAGGTGAAGGTGGTCACGAGGGTGGGCCAGGGCACGGGCAGCTTGCCGGTGG
modifications: chemistry not given here
B2: 24-3′: dsDNA donor with 24-base 3′ overhangs, annealed SEQ ID 89 and 90 (nucleic acid)
chain 1: dG*dA*dCdTdAdCdAdAdAdGdAdCdGdAdTdGdAdCdGdAdCdAdAdGdAdAdTdTdCdTdTdAdCdGdGdCdGdTdGdCdAdGdTdGdCdTdTdCdAdGdCdCdGdCdTdAdCdC*dC*dC
chain 2: dA*dA*dGdAdAdTdTdCdTdTdGdTdCdGdTdCdAdTdCdGdTdCdTdTdTdGdTdAdGdTdCdGdGdTdCdAdGdGdGdTdGdGdTdCdAdCdGdAdGdGdGdTdGdGdGdC*dC*dA
modifications: further chemistry not fully specified
B3: PS79: phosphorothioate 79-mer PAM ssDNA donor, EmGFP, SEQ ID 38 (nucleic acid)
DNA: CATGTGGTCGGGGTAGCGGGCGAAGCACTGCACGCCGTAGGTGAAGGTGGTCACGAGGGTGGGCCAGGGCACGGGCAGC
modifications: 5' phosphate, modified ends, chemistry not fully specified
B4: 79: unmodified 79-mer PAM ssDNA donor, EmGFP, SEQ ID 39 (nucleic acid)
DNA: B3 DNA
modifications: DNA, backbone not given here
B5: 48-50 NP: symmetric non-PAM strand ssDNA donor, EmGFP, SEQ ID 70 (nucleic acid)
DNA: GTGCTGCTTCATGTGGTCGGGGTAGCGGGCGAAGCACTGCACGCCGTAGGTGAAGGTGGCACGAGGGTGGGCCAGGGCACGGGCAGCTTGCCGGTGG
modifications: DNA, backbone and methylation of C not given here; further chemistry not fully specified
B6: 30-51 NP: asymmetric non-PAM strand ssDNA donor, EmGFP, SEQ ID 68 (nucleic acid)
DNA: GCTGCTTCATGTGGTCGGGGTAGCGGGCGAAGCACTGCACGCCGTAGGTGAAGGTGGTCACGAGGGTGGGCCAGGGCACGG
modifications: chemistry not given here
B7: 50-30 P: asymmetric PAM strand ssDNA donor, EmGFP, SEQ ID 65 (nucleic acid)
DNA: CCACCGGCAAGCTGCCCGTGCCCTGGCCCACCCTCGTGACCACCTTCACCTACGGCGTGCAGTGCTTCGCCCGCTACCCCG
modifications: DNA, backbone and methylation of C not given here; further chemistry not fully specified
B8: 30-51 P: asymmetric PAM strand ssDNA donor, EmGFP, SEQ ID 67 (nucleic acid)
DNA: CCGTGCCCTGGCCCACCCTCGTGACCACCTTCACCTACGGCGTGCAGTGCTTCGCCCGCTACCCCGACCACATGAAGCAGC
modifications: chemistry not given here

Key:
[1] = tested on: disrupted EmGFP stable cell lines; test: Homologous recombination (HDR) assay, gain of EmGFP function by flow cytometry; assay type: cell-based; details: for Avg (% GFP+ cells): sequential delivery
Experimental: The JUMP-IN™ system was used to prepare […]™ HEK293 stable cell expressing EmGFP (Thermo Fisher Scientific). The gene sequence of EmGFP is described in Table 5. To create a disrupted EmGFP mutant stable cell line, a gRNA targeting the 5′-[…]-3′ (SEQ ID NO: 125) sequence in EmGFP gene was synthesized. The resulting gRNA (300 ng) was incubated with 1.5 μg of GENEART® […]™ Cas9 nuclease and used to transfect wild type EmGFP cells via electroporation. The single cell clonal isolation was carried out by limiting dilution. The EmGFP loci from non-glowing cells were amplified by PCR using a forward primer 5′-[…]-3′ (SEQ ID NO: 126) and a reverse primer 5′-[…]-3′ (SEQ ID NO: 127) and the resulting PCR products were subjected to TOPO cloning and sequencing. From these clones, a disrupted EmGFP stable cell line containing a deletion of 5′-CACCTT-3′ (SEQ ID NO: 25) was identified (Table 5). In the homologous recombination assay, the gain of EmGFP function was determined by flow cytometric analysis.
(§1) To create homologous recombination (HR) assays, a series of gRNAs flanking the insertion site within the EmGFP gene were designed and synthesized (Table 4). Each individual gRNA was combined with GENEART™ […]™ Cas9 Nuclease to form the Cas9 protein/gRNA ribonucleoprotein complexes (Cas9 RNPs). The Cas9 RNPs were then used to transfect cells via NEON® electroporation. The genomic cleavage efficiency was then evaluated using the GENEART® Genomic Cleavage Detection kit at 48 hours post transfection. The gRNAs with highest editing efficiencies and also in close proximity to the insertion site were selected for the subsequent HR assays. For donor design of a single-stranded oligonucleotide, typically the mutation site was positioned at the center flanked by 30 to 50 nucleotides on each side. For asymmetric donor design, 30 nucleotides were placed on either the left or right arm and then 50 or 67 nucleotides on the right or left arm respectively, in both PAM and non-PAM strands. For design of a dsDNA oligonucleotide with single-stranded overhangs, the insertion element was overlapped in the center flanked by various lengths of ssDNA oligonucleotide on each side. By annealing two single-stranded oligonucleotides at 95° C. for 3 minutes, dsDNA donor molecules with either a 5′ protrusion or a 3′ protrusion were generated. To measure homologous recombination efficiency, the donor DNA was either co-transfected with Cas9 RNPs or delivered sequentially into cells via electroporation. At 48 hours post transfection, the gain of EmGFP function in reporter cell lines was determined by flow cytometric analysis with an Attune® NxT Acoustic Focusing Cytometer (Thermo Fisher Scientific). Alternatively, the genomic loci were PCR-amplified using the corresponding primers and then subjected to GENEART® Genomic Cleavage Detection assay or restriction digestion. The resulting PCR products were also subjected to TOPO cloning. Typically, 96 colonies were randomly picked for sequencing. The sequencing data were analyzed using VECTOR NTI ADVANCE® 11.5 software (Thermo Fisher Scientific).
For each homologous recombination assay, 1.5 μg of Cas9 protein and 360 ng of gRNA were added to Resuspension Buffer R to a final volume of 7 μl, but limiting the total volume of Cas9 protein plus gRNA to less than 1 μl. The gRNA could be diluted in Buffer R if the concentration was too high. Upon mixing, the sample was incubated at room temperature for 5 to 10 minutes to form Cas9 RNPs. Meanwhile, […]™ HEK293 cells expressing either eBFP or disrupted EmGFP were detached from culture flask with TRYPLE™ Express Enzyme and then counted. Aliquots of 1×10^6 cells were washed once with DPBS without Ca^2+ and Mg^2+ and the cell pellets were resuspended in 50 μl of Resuspension Buffer R. A 5 μl aliquot of cell suspension was mixed with 7 μl of Cas9 RNPs. […] The electroporated cells were transferred to 300 μl of […]. […]

[2] = tested on: eBFP locus in HEK293 cells expressing eBFP; test: EcoRI restriction digestion of PCR-amplified eBFP locus (FLAG tag/EcoRI insertion); assay type: cell-based; details: FIG. 11B, length of 3′ overhang, 48 hours
From the text: FIG. 11. Insertion of a FLAG tag along with an EcoRI site using dsDNA donor with single-stranded overhangs. (A) Various donor DNA molecules containing a 30-base FLAG tag along with an EcoRI site were designed and synthesized, including single-stranded DNA donor (ssDNA), blunt-end dsDNA donor (blunt), dsDNA donor with 5′ overhang (5′), dsDNA donor with 3′ overhang (3′). The length of overhangs varied from 6 nucleotides (6), 15 nucleotides (15) to 30 nucleotides (30). The 3′ and 5′ ends of the oligonucleotides harbored two consecutive phosphorothioate-modified bases (Table 4). The short dsDNA donors with and without overhangs were prepared by annealing two short DNA oligonucleotides. […] At 48 hours post transfection, the eBFP locus was PCR-amplified. The resulting PCR fragments were analyzed by the genomic cleavage and detection assays to determine the percentage of Indel or subjected to restriction digestion with EcoRI to determine the percentage of digestion. (B) Length of 3′ overhang. […] Alternatively, a dsDNA donor with 30-base 3′ overhang but without phosphorothioate modification (30-3′n) was used. The percentage of digestion with EcoRI was determined at 48 hours post transfection. (C) Dose effect. […] The eBFP loci were PCR-amplified. The resulting PCR fragments were analyzed by EcoRI digest. (D) Sequencing verification. The PCR fragments were cloned into E. coli and 192 clones were randomly picked for sequencing. The relative percentage of wild type (wt), NHEJ, and HDR clones derived from either ssDNA donor (ssDNA) or dsDNA with 3′ overhangs (3′ overhang) was plotted. The white rectangles represented the population of clones that contained the insert but with a point mutation. Examples of edited clones were shown in (E) (not representing the actual percentages of NHEJ and HDR). The underlined sequences represented the FLAG tag along with an RI site. FIG. 11 discloses SEQ ID NOs: 15-24, respectively, from top to bottom.
as §1, with “The sequencing data were analyzed using VECTOR NTI ADVANCE® 11.5 software (Thermo Fisher Scientific).” left out

[3] = Equal Mass of donor, +5 gRNA, 6 nt insertion
[4] = Equal Molarity of donor, +5 gRNA, 6 nt insertion

Molecule	Avg (% GFP+ cells) [1, 3]	Avg (% GFP+ cells) [1, 4]	Avg (% GFP+ cells) ([1]; (+3) gRNA, 10 pmol ssDNA donor)	Avg (% GFP+ cells) ([1]; (+5) gRNA, 10 pmol ssDNA donor)	Avg (% GFP+ cells) ([1]; (−3) gRNA, 10 pmol ssDNA donor)	further results
40: unmodified 40-mer PAM ssDNA donor, EmGFP, SEQ ID 43 (DNA GGCGAAGCACTGCACGCCGTAGGTGAAGGTGGTCACGAGG; DNA, backbone not given here) [compound 40]	2.96%	1.38%	–	–	–	–
PS40: phosphorothioate 40-mer PAM ssDNA donor, EmGFP, SEQ ID 42 (DNA GGCGAAGCACTGCACGCCGTAGGTGAAGGTGGTCACGAGG; 5' phosphate, chemistry not fully specified)	4.35%	1.79%	–	–	–	–
B1	–	–	4.1%	30.8%	30.0%	–
B2	–	–	–	–	–	Avg (% digestion) [2]: 17.3%; Avg (% digestion) ([2]; listed as donor DNA molecules with 24-base 3′-protruded ends): approximately 15%
B3	12.94%	12.53%	–	–	–	–
B4	7.99%	7.62%	–	–	–	–
B5	–	–	9.5%	26.0%	18.3%	Avg (% GFP+ cells), normalized HDR efficiency (% EmGFP+ cells/% Indel) ([1]; (+5)gRNA): 38.2%; Avg (% GFP+ cells), normalized HDR efficiency (% EmGFP+ cells/% Indel) ([1]; (−3)gRNA): 26.1%
B6	–	–	11.3%	20.6%	23.7%	–
B7	–	–	8.7%	19.7%	24.6%	–
B8	–	–	4.0%	30.6%	34.7%	–
